This note sets out measurements from PMC9636275 (Nature Communications, 2022).

Like-named read-outs stand apart in the source and are kept apart here.

In one series the test system is Acs. As to the kind of experiment: In vitro assay for Acs activity. The format is biochemical, E. coli. The note with it: result in words. Here is the method: (§1) This method was performed as described previously. In detail, the purified Acs or PrpE with a final concentration of 0.3 μM were added in the reaction buffer [50 mM HEPES, 10 mM MgCl2, 2.5 mM ATP, 0.5 mM HSCoA, 3 mM phosphoenolpyruvate, 0.1 mM NADH, 1 U pyruvate kinase, 1.5 U lactate dehydrogenase, 5 U myokinase, 10 mM DTT, and 0.2 mM organic acid substrate (acetate, lactate and propionate), PH 7.5] at 25 °C for 30 min. […] Each reaction was performed three biological repetitions.
(§2) Samples dissolved in water were analyzed by an Orbitrap Exploris 480 (Thermo Scientific) mass spectrometer in positive ESI mode using the settings described previously[65],[66]. […] An Orbitrap Exploris 480 (Thermo Fisher Scientific) was employed for MS analysis. Spray voltage was set to 3.5 kV, funnel RF level at 40, and ion transfer tube temperature at 320 °C. Data were collected by Xcalibur (v.4.0.27.19). The orbitrap mass analyzer was used as the MS1 detector with 120,000 resolution. The normalized AGC target and maximum injection time were set at 70% /standard for MS1. The MS2 detector was used 15,000 resolution. Targeted mass setting is lactyl-CoA: 840.1436, acetyl-CoA: 810.1330 and propionate CoA: 824.1487. […] The relative intensity of acyl-CoA was analyzed by Xcalibur (v.4.0.27.19).

In a further series the test system is GltA, PncB. As to the kind of experiment: Lactylation reaction of recombinant proteins by YiaC, immunoblotting. The format is biochemical, E. coli. As to conditions: 15 μM YiaC, 20 μM substrate, lactyl-CoA 1 mM, 25 °C, 10 h.
In series [1] the test system is YiaC. Kind of series: YiaC lactylation/acetylation of synthetic peptide, LC-MS. The format is biochemical, E. coli. As to conditions: 50 μM TICHDKAFVR, 5 μM YiaC, 2 h.
Series [2] has as its system YiaC. Kind of series: Kinetic parameters of YiaC, MALDI-TOF MS. The format is biochemical, E. coli. The note with it: for kcat: peptide from PncB, MALDI-TOF MS. How it is done: This method was described previously. […] Meanwhile, YiaC was incubated with unmodified peptide ([…], from PncB) in the YiaC reaction buffer. The concentrations of the peptides were 5, 10, 16, 32, 60, and 285 uM, and reaction time were 1, 5, 15, and 30 min. […] 0.1 μl samples mixed with 2,5-dihydroxybenzoic acid (DHB) were analyzed by MS. An acceleration voltage of 20 kV was used. MS data were analyzed using FlexAnalysis software for spectral processing and peak detection. The enzyme kinetics were analyzed by Prism GraphPad 8.0 software.

The subject of the next series is whole-cell lysates. As to the kind of experiment: Immunoblotting of lysine acylation in whole-cell lysates of overexpressing or deficient strains. Type of series: cell-based, E. coli. As to conditions: immunoblot. How it is done:
All the anti-acyllysine antibodies were purchased from PTM Biolabs Inc. All the synthetic peptides were generated by SciLight Biotechnology, LLC. Antibodies (all diluted 1:1000) and other reagents are listed in Supplementary Data 7.
This method was performed as described previously. In detail, plasmids were constructed to express proteins in E. coli. We used pEASY®-Basic Seamless Cloning and Assembly Kit (TRANS) to construct the plasmids of pET28a-cisY, pET28a-pncB, pET28a-gpmA, pET28a-mdh, pET28a-pykF, and pBR322-pykF-His tag. For mutation, we used the Fast Mutagenesis System (TRANS) to construct the vectors containing point mutated genes. All primers used for PCR are listed in Supplementary Data 7. The constructed vectors of pET28a were transformed into E. coli BL21 (λDE3) for overexpressing strains. The constructed vectors of pBR322 were transformed into E. coli MG1655 and cultured in LB medium containing ampicillin (Amp, 50 μg ml^–1), at 37 °C in shaken flasks at 220 rpm. overnight.
Next, cells were induced with 0.05 mM IPTG at 16 °C overnight followed by harvesting of whole-cell lysates for immunoblotting or protein purification. The proteins were harvested from cultured cells by lysis buffer (20 mM Tris-HCl, pH 8.0, 10 mM MgCl2, 1 mg ml^–1 lysozyme, 50 U ml^–1 nuclease). Then the proteins were mixed with HisPur Ni-NTA Resin and washed by wash buffer (20 mM Na3PO4, 300 mM NaCl, 25 mM imidazole, pH 7.4), the overexpressed proteins were eluted with elution buffer (20 mM Na3PO4, 300 mM NaCl, 250 mM imidazole, PH 7.4). The elution was collected and concentrated using an Amicon Ultra-0.5 Centrifugal Filter Device in storage buffer (100 mM HEPES, 10 mM MgCl2, 7.7 mM KCl, pH 7.0).
In general terms: A western blot detects proteins with antibodies after separation by electrophoresis.

A further series relates to PrpE. Kind of series: In vitro assay for PrpE activity. Type of series: biochemical, E. coli. The note with it: result in words. How it is done:
as §1, §2

[3] abbreviates: overexpression in E. coli BL21 (λDE3) vs pET28a.

B1: Acs: acetyl-CoA synthetase (protein, UniProt P27550 1-652, looked up)
Acetyl-coenzyme A synthetase: MSQIHKHTIPANIADRCLINPQQYEAMYQQSINVPDTFWGEQGKILDWIKPYQKVKNTSFAPGNVSIKWYEDGTLNLAANCLDRHLQENGDRTAIIWEGDDASQSKHISYKELHRDVCRFANTLLELGIKKGDVVAIYMPMVPEAAVAMLACARIGAVHSVIFGGFSPEAVAGRIIDSNSRLVITSDEGVRAGRSIPLKKNVDDALKNPNVTSVEHVVVLKRTGGKIDWQEGRDLWWHDLVEQASDQHQAEEMNAEDPLFILYTSGSTGKPKGVLHTTGGYLVYAALTFKYVFDYHPGDIYWCTADVGWVTGHSYLLYGPLACGATTLMFEGVPNWPTPARMAQVVDKHQVNILYTAPTAIRALMAEGDKAIEGTDRSSLRILGSVGEPINPEAWEWYWKKIGNEKCPVVDTWWQTETGGFMITPLPGATELKAGSATRPFFGVQPALVDNEGNPLEGATEGSLVITDSWPGQARTLFGDHERFEQTYFSTFKNMYFSGDGARRDEDGYYWITGRVDDVLNVSGHRLGTAEIESALVAHPKIAEAAVVGIPHNIKGQAIYAYVTLNHGEEPSPELYAEVRNWVRKEIGPLATPDVLHWTDSLPKTRSGKIMRRILRKIAAGDTSNLGDTSTLADPGVVEKLLEEKQAIAMPS
Turning to B1, in the series with Acs, the “formation of lactyl-CoA from lactate” value is “neither Acs nor PrpE could catalyze the formation of lactyl-CoA from lactate”.

B2: YiaC: GNAT family protein; lysine lactylase (protein, UniProt P37664 1-146, looked up)
Peptidyl-lysine …: MIREAQRSELPAILELWLESTTWGHPFIKANYWRDCIPLVRDAYLANAQNWVWEEDGKLLGFVSIMEGRFLAAMFVAPKAVRRGIGKALMQYVQQRHPHLMLEVYQKNQPAINFYQAQGFHIVDCAWQDETQLPTWIMSWPVVQTL
As for B2, the “lactylation of candidate proteins” value with GltA, PncB was “can effectively lactylate citrate synthase (GltA) and nicotinate phosphoribosyltransferase (PncB)”. Besides, the “lactylation of peptide by YiaC” value in the series on YiaC [1] (0.1 mM lactyl-CoA, pH 7, 37 °C) was “can catalyze lactylation in vitro”. Besides, the “lactylation compared with acetylation by YiaC” value in the series on YiaC [1] (37 °C) is reported as “likely more efficient for lactylation”. Moreover, the Vmax in the series on YiaC [2] (Acetylation, Michaelis-Menten best fit, Supplementary Data 2) is given as 0.005773; with YiaC [2] (Lactylation, Michaelis-Menten best fit, Supplementary Data 2) it was 0.01667. The Km (usually the substrate concentration at which the rate is half of its maximum) in the series on YiaC [2] (Acetylation, Michaelis-Menten best fit, Supplementary Data 2, read-out: Km) amounted to 28.7 µM; in the series on YiaC [2] (Lactylation, Michaelis-Menten best fit, Supplementary Data 2, read-out: Km), 26.6 µM; in the series on YiaC [2] (acetylation, peptide from PncB 5-285 μM, mean ± SEM, n = 3, read-out: Km for peptide) it was 28.7 ± 1.2 µM; in the series with YiaC [2] (lactylation, peptide from PncB 5-285 μM, mean ± SEM, n = 3, read-out: Km for peptide), 26.6 ± 1.1 µM. Further, the kcat/Km (as a rule, the second-order rate constant that governs catalysis at low substrate concentration) in the series on YiaC [2] (acetylation, n = 3) is 8000 M⁻¹ s⁻¹; in the series on YiaC [2] (lactylation, n = 3) it was 36000 M⁻¹ s⁻¹. For the same molecule, the kcat (commonly the maximal rate divided by the concentration of active sites) in the series on YiaC [2] (acetylation, mean ± SEM, n = 3) was 0.23 ± 0.04 s⁻¹; in the series with YiaC [2] (lactylation, mean ± SEM, n = 3), 0.97 ± 0.03 s⁻¹. For the same molecule, the Kla level result in the series with whole-cell lysates (overexpression in E. coli BL21 (λDE3) vs empty pET28a, LB 37 °C) is “extensive and obvious increase in Kla levels”. Besides, the Kac level entry with whole-cell lysates (setting [3]) was “could upregulate Kac”. Moreover, the succinylation level result in the series with whole-cell lysates (setting [3]) is reported as “did not cause a change in succinylation”.

B3: PrpE: propionate CoA synthetase (protein, UniProt P77495 1-628, looked up)
Propionate--CoA ligase: MSFSEFYQRSINEPEQFWAEQARRIDWQTPFTQTLDHSNPPFARWFCEGRTNLCHNAIDRWLEKQPEALALIAVSSETEEERTFTFRQLHDEVNAVASMLRSLGVQRGDRVLVYMPMIAEAHITLLACARIGAIHSVVFGGFASHSVAARIDDAKPVLIVSADAGARGGKIIPYKKLLDDAISQAQHQPRHVLLVDRGLAKMARVSGRDVDFASLRHQHIGARVPVAWLESNETSCILYTSGTTGKPKGVQRDVGGYAVALATSMDTIFGGKAGSVFFCASDIGWVVGHSYIVYAPLLAGMATIVYEGLPTWPDCGVWWTIVEKYQVSRMFSAPTAIRVLKKFPTAEIRKHDLSSLEVLYLAGEPLDEPTASWVSNTLDVPVIDNYWQTESGWPIMAIARGLDDRPTRLGSPGVPMYGYNVQLLNEVTGEPCGVNEKGMLVVEGPLPPGCIQTIWGDDGRFVKTYWSLFSRPVYATFDWGIRDADGYHFILGRTDDVINVAGHRLGTREIEESISSHPGVAEVAVVGVKDALKGQVAVAFVIPKESDSLEDRDVAHSQEKAIMALVDSQIGNFGRPAHVWFVSQLPKTRSGKMLRRTIQAICEGRDPGDLTTIDDPASLDQIRQAMEE
With B3, the “formation of lactyl-CoA from lactate” value in the series with PrpE was “neither Acs nor PrpE could catalyze the formation of lactyl-CoA from lactate”.
